# Data as given in publication PMC10591846.
# Target: GST-Pirh2 (construct of Figures S5 and S12 not stated) (human) (UniProt Q96PM5)
# Experiment: AlphaScreen or HTRF
# GST-Pirh2 (construct of Figures S5 and S12 not stated) (human), sequence (Q96PM5 whole entry): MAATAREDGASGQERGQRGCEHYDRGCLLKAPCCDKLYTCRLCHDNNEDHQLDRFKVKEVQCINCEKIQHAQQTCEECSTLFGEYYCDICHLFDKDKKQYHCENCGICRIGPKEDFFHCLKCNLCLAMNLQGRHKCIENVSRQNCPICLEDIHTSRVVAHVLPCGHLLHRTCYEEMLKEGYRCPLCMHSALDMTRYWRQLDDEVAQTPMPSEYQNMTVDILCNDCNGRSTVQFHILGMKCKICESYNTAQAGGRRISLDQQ
substance,measurement,value
B. subtilis SsrA tag (peptide),IC50,0.47 µM
